The values below come from the DeepSol protein solubility set.

The nature of this data set: soluble on expression in E. coli; label from the status in PepcDB or PDB records.
For “ADKAASGVLTKLPQKQIQEMKEAFSMIDVDRDGFVSKEDIKAISEQLGRAPDDKELTAMLKEAPGPLNFTMFLSIFSDKLSGTDSEETIRNAFAMFDEQETKKLNIEYIKDLLENMGDNFNKDEMRMTFKEAPVEGGKFDYVKFTAMIKGSGEEEA”, the “soluble on expression in E. coli” value is “soluble”.

With “ADQLLRKKRRIFIHSVGAGTINALLDCLLEDEVISQEDMNKVRDENDTVMDKARVLIDLVTGKGPKSCCKFIKHLCEEDPQLASKMGLH”, the “soluble on expression in E. coli” value was “soluble”. For “AEAAKPATAADSKAAFKNDDQKSAYALGASLGRYMENSLKEQEKLGIKLDKDQLIAGVQDAFADKSKLSDQEIEQTLQAFEARVKSSAQAKMEKDAADNEAKGKEYREKFAKEKGVKTSSTGLVYQVVEAGKGEAPKDSDTVVVNYKGTLIDGKEFDNSYTRGEPLSFRLDGVIPGWTEGLKNIKKGGKIKLVIPPELAYGKAGVPGIPPNSTLVFDVELLDVKPAPKADAKPEADAKAADSAKK” the value was “soluble”; for “AFINAHTHFEFSNNKASFDYGSFSGWLGSVLNNGGAILENCQGAIQNAISTQLKSGVGSVGAISNHLIEVNLLKESPLNAVVFLEFLGSSYSLEKLKAFEAKFKELKDLEDKKLKAALAVHAPYSVQKDMALSVIQLAKDSQSLLSTHFLESLEELEWVENSKGWFENFYQHFLKESHFKSLYKGANDYIDMFKDTHTLFVHNQFASLEALKRIKSQVKNAFLITCPFSNRLLSGQALDLERTKEAGLSVSVATDGLSSNISLSLLDELRAFLLTHNMPLLELAKIALLGATRHGAKALALNNG”, “not soluble”; for “AHHHHHHASAKWVCKICGYIYDEDAGDPDNGISPGTKFEELPDDWVCPICGAPKSEFEKLEDGSRFIDSNVFLYAMIKPKGNTSKEILKKKEKAKKILLRVENGEDVVTTLIHLSEIANILEAKVNLTTAVRFLENLLLAENVKILPVSVEEYLKAVLISKEKGISVNDALAYLKMKELNIKEIYTFDRHFQNLDVEVIQD”, “soluble”. For “AHHHHHHGSGASPVIVPVRCFTCGKVIGDKYYEFKRRVEAGEDPEKVLDDLGLERYCCRRMLLSHVELIDDIMHYRVY” the value was “not soluble”; for “AHHHHHHGSGWWYTTNLRSRSNDMDKPEEILNEKDIIKRAYKFGFYVGLHGHTDWFGWVAEVKKKIYEEAKHLGVYEEVKKAYIKGKKAGRVEREKRIHLGLMKQTTSEIPEKIKIVSIERNRGSIASLNFPKIEDMPKTIKKPRFFRLPKILRGGEE”, “not soluble”; for “AHHHHHHGSKILWAPWRIEYIRAPKHEGCIFCDFPRENRDRERLILYRGKHAFIIMNNYPYNPGHVMVAPYRHVASVEDLTDEEMLEIMKLAALIMKAIRKVMKPDGFNLGFNIGKVAGAGVDGHVHLHIVPRWNGDTNFMPVIADTKVIPESLEQAYEELKKALEEIENAE”, “soluble”. For “AHHHHHHGSMLKEVHELLNRIWGDIFELREELKEELKGFTVEEVSEVFNAYLYIDGKWEEMKYPHPAFAVKPGGEVGATPQGFYFVFAFPKEELSKEFIEDVIRAFEKLFIYGAENFLEDFYNFEHPISGDEVWDRIVNSDEEMINFEVDLGFDKEEVKREIKRFIELARRYNLL” the value was “soluble”. For “AHHHHHHGSNFQQEILIIKSEIYPIVSKHYPKNTRREVISLYDLITFAILAHLHFNGVYKHAYRVLIEEMKLFPKIRYNKLTERLNRHEKLLLLAQEELFKKHAREYVRILDSKPIQTKELARKNRKDKEGSSEIISEKPAVGFVPSKKSFTMGTS”, the “soluble on expression in E. coli” value is “not soluble”. For “AHHHHHHGSPTWEELYKNAIEKAIKSVPKVKGVLLGYNTNIDAIKYLDSKDLEERIIKAGKEEVIKYSEELPDKINTVSQLLGSILWSIRRGKAAELFVESCPVRFYMKRWGWNELRMGGQAGIMANLLGGVYGVPVIVHVPQLSRLQANLFLDGPIYVPTLENGEVKLIHPKEFSGDEENCIHYIYEFPRGFRVFEFEAPRENRFIGSADDYNTTLFIREEFRESFSEVIKNVQLAILSGLQALTKENYKEPFEIVKSNLEVLNEREIPVHLEFAFTPDEKVREEILNVLGMFYSVGLNEVELASIMEILGEKKLAKELLAHDPVDPIAVTEAMLKLAKKTGVKRIHFHTYGYYLALTEYKGEHVRDALLFAALAAAAKAMKGNITSLEEIREATSVPVNEKATQVEEKLRAEYGIKEGIGEVEGYQIAFIPTKIVAKPKSTVGIGDTISSSAFIGEFSFTL” the value was “not soluble”. For “AHHHHHHGSQRALVTLTPSESKRLIAKAVVAMDEVQKALKNGFIYIATGTTAAYIAEELLGEKIEKEKWTVGTISKGRTCVTPKTTWPKHLVLYKGKLFEGEPLEALKEMGPEDVFIKGGNAIDINWNVAVFAAAPDGGTIGKTFGWTITKGVFTITPISLEKFVPTPVKESAKLTGIYSFNWGTGLYAALVPIPHAHPVTEVEAYRILAGVEAIPIAAGGAGGAEGSVTLVLEGDDENMEKAKEITKAVKGEPPLEPYTEDCSICPFAKICGLGSGSF” the value was “not soluble”; for “AHHHHHHGSRVVKKIGLIGGMTPESTCYYYRKYIEISRKKFRKYEYPELLIYSINFRDFFMNPEGWEGRKRILINAAKALERAGAELIALTANTPHIVFDDIQKEISVPMVSIIDAVAEEILSHGLKKVLLLETKTTMSSGFYVNALKNKGLEVVVPNEEEQEELNRIIFEELAFENLKSKRWIIDLIERYAKEEGVEGVILGCTELPLAVKRGDVSIEVFDSAEIHIKKLIEVASQSI”, “not soluble”. For “AHHHHHHGSVKHYSVKVITAKSRTRLGLQLADARINELFNMIQDKTLRRDPLLISRRLVPSWATLNSFMLYFGLILAKEEVSISCTLESAT” the value was “not soluble”; for “AHHHHHHGSYVIIMGAGRIGTLVAKMLENSGHDVAIIEMNKDRARAVSDIVSGLVIEGDATDQNILESANVRNADAFVALTGKDDANILACILAKHLNPRIMTILRITDPRKKKIFEEVKDLKKYFDVVVSPEDIAANYIFRVVITPGFDRVLLPREGAEIIQFHIDENSKVAGKAVKDLNLPRDSLIIAIYDEKGNLIIPSGETILPKRGTVVVFAKDSALKEIKKIMEEKVEESEE”, “soluble”. For the sequence “AHHHHHHMVHITLDRNTANSWLIISKDRRQVRMGDTHQNVSDNKERFSNYPMVLGAQRFSSGKMYWEVDVTQKEAWDLGVCRDSVQRKGQFSLSPENGFWTIWLWQDSYEAGTSPQTTLHIQVPPCQIGIFVDYEAGVVSFYNITDHGSLIYTFSECVFAGPLRPFFNVGFNYSGGNAAPLKLCPLKM”, the “soluble on expression in E. coli” value was “soluble”. Turning to “AHKKIFLVEDNKADIRLIQEALANSTVPHEVVTVRDGMEAMAYLRQEGEYANASRPDLILLDLNLPKKDGREVLAEIKSDPTLKRIPVVVLSTSINEDDIFHSYDLHVNCYITKSANLSQLFQIVKGIEEFWLSTATLPS”, the “soluble on expression in E. coli” value is on record as “soluble”. For “AIAASLSDQSGSIGSEQTRPSGAIPVESLPPQALEQLIASLQQEVEQLADALQQLNFANQRWTLCKQSIEAFAEETTRVDLPGAQSRATDAISSTASAKPETSVEVNQNQRLLVPLSRSLYVLGRVINPERCLIDIGTGYHVERKLADAAEFFDRRLKHVRGSMRQLTLKIDQNQQQMQTIREILVRKLAGAQQAAEHT” the value was “soluble”; for “AIADPAEVEFLAEKEMVKIIPNFSLDKIYLIGGDLGPFNPGLPVEVPVWLALNLKQRQKCRIVPPEWMDTDKLEDIREQERKLDTFTPIPNPYYMELTKLLLNHAADNIPKADEIRTLVKDIWDTRMAKLRLSADSFISQQEAHAQLDNLTLMEINTTRSFLLDSLNYMYKLRSNLQPGRSKDY”, “soluble”; for “AIAETGGGAPLTKSSEAVEGDFVEDRLRGNEAFRRGNYEAAASYYSEALEKIRLAKTELPTQDRYPWSLEEVLIRCNRALVFLRLASAAALPNVGSNRFEEDACTAEHESEEATPCSLWQRAAEDASVALDLITDFEDEGESERVTELRVKALYRRMVANKGQNNFADAAKDAEALAKIRPEYRSEAELLAQRAAAESERAKQEALQKLKEVGNSFLSLFGVSIDNFQTKRNPDGTYSVSYCPKS”, “soluble”.
